According to paper PMC10593859 (2023):

Tests used:
Ad26 viral particles [1] = experiment: SPR; pre-vaccination human serum (1:5) flowed over Ad26 first
Ad26 viral particles [2] = experiment: as above; remark: listed apart in the source
Ad26 viral particles [3] = experiment: SPR; post-Ad26 vaccination human serum (1:5) flowed over Ad26 first
Ad26 viral particles [4] = experiment: as above; remark: listed apart in the source

B1: recombinant human platelet factor 4 (PF4) (natural protein)
chain: EAEEDGDLQCLCVKTTSQVRPRHITSLEVIKAGPHCPTAQLIATLKNGRKICLDLQAPLYKKIIKKLLES
Kd (Ad26 viral particles [1]): 233 nM | Kd (Ad26 viral particles [2]): 122 nM | Kd (Ad26 viral particles [3]): 612 nM | Kd (Ad26 viral particles [4]): 478 nM
